Laboratory results: patent US20090188010A1

B1: StPotIA, bacterially expressed with N-terminal 6xHis-tag (protein, not shown: small tags and cut ends)
chain: KESESESWCKGKQFWPELIGVPTKLAKEIIEKENPSINDVPIILNGTPVPADFRCNRVRLFDNILGDVVQIPRVA
B2: StPotIB, bacterially expressed with N-terminal 6xHis-tag (protein, not shown: small tags and cut ends)
chain: KEFECNGKQFWPELIGVPTKLAKEIIEKENSLINNVQILLNGSPVTMDYRCNRVRLFDNILGSVVQIPRVA
B3: recombinant C1 inhibitor with N-terminal hexahistidine tag, expressed in E. coli (protein, not shown: small tags and cut ends)
chain: DRICTNCCAGTKGCKYFSDDGTFVCEGESDPRNPKACTLNCDPRIAYGVCPRSEEKKN

Key:
[1] = molecular target: NaPI-insensitive chymotrypsin from H. punctigera (HpCh5), native enzyme from the larval gut (Helicoverpa punctigera); assay: cell-based or functional assay
Sequence of NaPI-insensitive chymotrypsin from H. punctigera (HpCh5), native enzyme from the larval gut (Helicoverpa punctigera) (chain, as listed by the source limits assumed): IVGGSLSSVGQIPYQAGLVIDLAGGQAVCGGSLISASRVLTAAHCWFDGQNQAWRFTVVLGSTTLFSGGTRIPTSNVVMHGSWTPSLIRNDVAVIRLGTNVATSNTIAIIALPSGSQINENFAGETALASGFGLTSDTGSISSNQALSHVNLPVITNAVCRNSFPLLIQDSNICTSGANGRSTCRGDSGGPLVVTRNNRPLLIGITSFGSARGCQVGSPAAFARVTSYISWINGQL

[2] = molecular target: chymotrypsins in unfractionated gut extracts from H. punctigera larvae; assay: cell-based or functional assay

Binder | inhibition of SA2PFpNA or SA2PLpNA hydrolysis at 300 nM inhibitor [1] | inhibition of SA2PMpNA hydrolysis [1] | inhibition of gut chymotrypsin activity, unfractionated gut extract (FIG. 3) [2]
B1 | > 75% | 40% | 
B2 | > 75% | 40% | 
B3 |  |  | 70%
